Assay results as given in paper PMC8616854.
Values belong to the substance of their own block, whether it stands above or below them.

Tests used:
[1] = target: CdiA‐CT^BWH57 toxin (nuclease) domain (Serratia marcescens BWH57); assay: crystal structure; CdiA-CT•CdiI complex, 1.59 Å; the N-terminal domain of CdiA-CT was cleaved off by in situ proteolysis before crystallisation
[2] = target: Histidine zipper coiled coil protein from Meiothermus silvanus (Meio) (Meiothermus silvanus); assay: crystal structure; crystal structures of the histidine zipper proteins (1.35 to 1.93 Å); antiparallel homo-dimers
[3] = target: Histidine zipper coiled coil protein from Methylobacter tundripaludum (Tuna) (Methylobacter tundripaludum); assay: as above
[4] = target: Histidine zipper coiled coil protein from Nitrosococcus oceani (Nitro) (Nitrosococcus oceani); assay: as above

Substance: CdiI^BWH57 immunity protein (natural protein)
stoichiometry N [1]: 1

stoichiometry N [2]: 2
Substance: Histidine zipper coiled coil protein from Meiothermus silvanus (Meio) (natural protein)

stoichiometry N [3]: 2
Substance: Histidine zipper coiled coil protein from Methylobacter tundripaludum (Tuna) (natural protein)

stoichiometry N [4]: 2
Substance: Histidine zipper coiled coil protein from Nitrosococcus oceani (Nitro) (natural protein)
